B1: 36C2 (original hybridoma antibody) (antibody, V domains shown)
VH: QVQLQQSGAELARPGTSLKMSCKATGYTFTNYWIAWVKQRPGYGLEWIGSIFPGGDYTNYNEKFKGKATLTADTSSSTSYMQLSSLTSEDSAIYYCTRPYYSNYGHFDYWGQGTTLTVSS
VL: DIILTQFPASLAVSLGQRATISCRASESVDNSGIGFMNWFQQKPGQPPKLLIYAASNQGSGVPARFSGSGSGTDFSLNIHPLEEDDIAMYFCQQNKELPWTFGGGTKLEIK
B2: 36C2 (recombinant chimeric antibody: mouse 36C2 variable domains, human IgG1 constant domains) (antibody, V domains shown)
VH: QVQLQQSGAELARPGTSLKMSCKATGYTFTNYWIAWVKQRPGYGLEWIGSIFPGGDYTNYNEKFKGKATLTADTSSSTSYMQLSSLTSEDSAIYYCTRPYYSNYGHFDYWGQGTTLTVSS
VL: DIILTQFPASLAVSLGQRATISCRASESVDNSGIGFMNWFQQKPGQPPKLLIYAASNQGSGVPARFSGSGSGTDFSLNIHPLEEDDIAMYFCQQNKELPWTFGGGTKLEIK
notes: also called chimeric antibody 36C2
B3: Antibody A1 (antibody, V domains shown)
VH: QVQLVQSGAEVKKPGASVKVSCKATGYTFTNYWIAWVKQAPGQGLEWMGSIFPGGDYTNYNEKFKGKVTMTRDTSTSTSYMELSSLRSEDTAVYYCARPYYSNYGHFDYWGQGTLVTVSS
VL: EIVLTQSPATLSLSPGERATLSCRASESVDNSGIGFMNWYQQKPGQAPKLLIYAASNQGSGIPARFSGSGSGTDFTLTISRLEPEDFAMYYCQQNKELPWTFGGGTKLEIK
B4: Antibody A3 (antibody, V domains shown)
VH: QVQLVQSGAEVKKPGASVKVSCKATGYTFTDYWIAWVRQAPGQGLEWMGSIFPGGDYTNYNEKFKGRVTMTRDTSTSTSYMELSSLRSEDTAIYYCARPYYSNYGHFDYWGQGTLVTVSS
VL: EIILTQFPATLSLSPGERATISCRASESVDNSGIGFMNWYQQKPGQAPRLLIYAASNQGSGIPARFSGSGSGTDFTLTISRLEPEDFAVYYCQQNKELPWTFGQGTKLEIK
B5: Antibody A4 (antibody, V domains shown)
VH: QVQLVQSGAEVKKPGASVKVSCKATGYTFTDYWIAWVRQAPGQGLEWMGSIFPGGDYTNYNEKFKGRVTMTRDTSTSTSYMELSSLRSEDTAVYYCARPYYSNYGHFDYWGQGTLVTVSS
VL: EIVLTQSPATLSLSPGERATLSCRASESVDNSGIGFMNWYQQKPGQAPRLLIYAASNQGSGIPARFSGSGSGTDFTLTISRLEPEDFAVYYCQQNKELPWTFGQGTKLEIK
B6: Antibody B1 (antibody, V domains shown)
VH: EVQLVQSGAEVKKPGASVKVSCKASGFSFTGYYMHWVRQAPGQGLEWVGLIIPHNDYTVNNQKFKGRVTMTRDTSTSTAYMELSSLRSEDTAVYYCARSDYYGAMDYWGQGTLVTVSS
VL: EIVMTQSPATLSVSPGERATLSCRASQNIGTSIHWYQQKPGQAPRLLIKYASNSIYGIPARFSGSGSGTEFTLTISSLQSEDIAVYYCQQGASWPPFTFGQGTKLEIK
B7: Antibody B3 (antibody, V domains shown)
VH: EVQLVQSGAEVKKPGASVKVSCKASGFSFTGYYMHWVRQAPGQGLEWVGLIIPHNDYTVNNQKFKGRVTMTRDTSTSTAYMELSSLRSEDTAVYYCARSDYYGAMDYWGQGTLVTVSS
VL: EIVMTQSPATLSVSPGERATLSCRASQNIGTSIHWYQQKPGQAPRLLIKYASDSVYGIPARFSGSGSGTEFTLTISSLQSEDIAVYYCQQGASWPPFTFGQGTKLEIK
B8: Antibody B4 (antibody, V domains shown)
VH: EVQLVQSGAEVKKPGASVKVSCKASGFSFTGYYMHWVRQAPGQGLEWVGLIIPHNDYTVNNQKFKGRVTMTRDTSTSTAYMELSSLRSEDTAVYYCARSDYYGAMDYWGQGTLVTVSS
VL: EIVMTQSPATLSVSPGERATLSCRASQNIGTSIHWYQQKPGQAPRLLIKYASDSKDGIPARFSGSGSGTEFTLTISSLQSEDIAVYYCQQGASWPPFTFGQGTKLEIK

Columns and labels:
recombinant mouse IL-1B = recombinant mouse IL-1B (mouse, UniProt P10749 118-269); assay: cell-based or functional assay
Chain of recombinant mouse IL-1B (P10749 118-269 limits assumed): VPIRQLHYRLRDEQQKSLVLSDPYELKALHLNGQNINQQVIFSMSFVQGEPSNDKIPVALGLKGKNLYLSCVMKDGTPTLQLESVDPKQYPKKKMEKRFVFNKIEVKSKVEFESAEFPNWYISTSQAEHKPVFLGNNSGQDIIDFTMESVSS

recombinant human IL-1B [1] = target: T1, recombinant human IL-1B (human, UniProt P01584 117-269); assay: Kinexa, solution equilibrium titration of hIL-1B against 10 pM antibody; mean ± SEM (N = 3)
T1 construct: also called rec. human IL-1B; hIL-1B

[2] = target: recombinant cynomolgus IL-1B (cynomolgus, UniProt P79182 117-268, limits assumed); assay: cell-based or functional assay
Chain of recombinant cynomolgus IL-1B (P79182 117-268 limits assumed): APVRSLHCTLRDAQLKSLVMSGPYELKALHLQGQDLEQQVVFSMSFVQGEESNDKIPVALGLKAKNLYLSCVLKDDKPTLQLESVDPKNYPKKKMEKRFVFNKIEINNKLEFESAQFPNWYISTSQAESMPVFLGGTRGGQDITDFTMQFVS

recombinant human IL-1B [3] = target: T1, recombinant human IL-1B; assay: cell-based or functional assay
[4] = target: Endogenous human IL-1B (THP1 supernatants) (human, UniProt P01584 117-269); assay: cell-based or functional assay
recombinant human IL-1B [5] = target: T1, recombinant human IL-1B; assay: Kinexa

Row | Binder | IC50, mouse IL-1 B-induced KC release, mouse endothelial bEnd3 cells stimulated with 15 pM recombinant mouse IL-1 B (recombinant mouse IL-1B) [nM] | Kd (recombinant human IL-1B [1]) [pM] | IC50, rec. cyno IL-1 B, HEK blue [2] [pM] | IC90, rec. cyno IL-1 B, HEK blue [2] [pM] | IC50, rec. human IL-1 B, HEK blue (recombinant human IL-1B [3]) [pM] | IC50, rec. human IL-1 B, MRC-5 (IL-6 production) (recombinant human IL-1B [3]) [pM] | IC90, rec. human IL-1 B, HEK blue (recombinant human IL-1B [3]) [pM] | IC90, rec. human IL-1 B, MRC-5 (IL-6 production) (recombinant human IL-1B [3]) [pM] | IC50, Endogenous human IL-1 B (THP1 supernatants), HEK blue [4] [pM] | IC90, Endogenous human IL-1 B (THP1 supernatants), HEK blue [4] [pM] | Kd (recombinant human IL-1B [5]) [pM] | IC50, rec. mouse IL-1 B, HEK blue (recombinant mouse IL-1B) [pM] | IC90, rec. mouse IL-1 B, HEK blue (recombinant mouse IL-1B) [pM]
1 | B1 | 0.5 |  |  |  |  |  |  |  |  |  |  |  | 
2 | B2 |  | 5.56 | 14 | 154 | 17 | 7 | 150 | 44 | 3 | 96 | < 10 |  | 
3 | B3 |  |  | 30 | 167 | 33 | 10 | 329 | 131 | 9 | 150 |  | 1140 | 3240
4 | B4 |  |  | 23 | 236 | 42 | 13 | 340 | 162 | 8 | 246 |  | 998 | 3640
5 | B5 |  |  | 26 | 205 | 40 | 16 | 495 | 125 | 36 | 262 |  | 1080 | 3980
6 | B6 |  |  | 13 | 127 | 13 | 13 | 110 | 110 | 3 | 68 |  |  | 
7 | B7 |  |  | 14 | 154 | 8 | 8 | 257 | 257 | 1 | 75 |  |  | 
8 | B8 |  |  | 20 | 101 | 18 | 18 | 98 | 98 | 7 | 91 |  |  | 

Source: patent WO2016008851A1 (dated 2016)
